Data published in the Immune Epitope Database (IEDB).
pIC50, pKd: −log10 of the molar value.

Columns and labels:
HLA-A*03:01 [1] = test: IEDB peptide-MHC binding, purified MHC/competitive/fluorescence; ≥ and ≤ were set here for values at or beyond the usual limits of such assays
HLA-A*11:01 [2] = test: as above
HLA-A*02:01 [3] = test: IEDB peptide-MHC binding, purified MHC/competitive/fluorescence; filed as Kd, often an IC50 or EC50 that approximates it; ≥ and ≤ were set here for values at or beyond the usual limits of such assays
HLA-A*02:19 = test: as above
HLA-B*48:01 = test: IEDB peptide-MHC binding, purified MHC/direct/fluorescence; filed as Kd, often an IC50 or EC50 that approximates it; ≥ and ≤ were set here for values at or beyond the usual limits of such assays
HLA-A*02:06 = test: IEDB peptide-MHC binding, purified MHC/competitive/radioactivity; filed as Kd, often an IC50 or EC50 that approximates it; ≥ and ≤ were set here for values at or beyond the usual limits of such assays
HLA-A*03:01 [4] = test: as above
HLA-B*40:01 [5] = test: as above; settings: source organism: Hepatitis C virus (isolate 1)
HLA-A*33:01 = test: as above
HLA-B*44:03 = test: as above; settings: source organism: Hepatitis C virus (isolate 1)
HLA-B*40:02 = test: as above; settings: source organism: Hepatitis C virus (isolate 1)
HLA-A*11:01 [6] = test: as above
HLA-A*02:02 = test: as above
HLA-A*02:01 [7] = test: as above
HLA-A*68:01 = test: as above
HLA-B*54:01 = test: as above
HLA-A*01:01 [8] = test: as above; settings: source organism: Hepatitis C virus (isolate 1)
HLA-A*02:03 = test: as above
HLA-B*53:01 = test: as above
HLA-B*08:01 [9] = test: as above; settings: source organism: Hepatitis C virus (isolate 1)
HLA-A*31:01 [10] = test: as above
HLA-B*44:02 [11] = test: as above; settings: source organism: Hepatitis C virus (isolate 1)
HLA-A*68:02 = test: as above
HLA-A*02:01 [12] = test: IEDB peptide-MHC binding, purified MHC/competitive/fluorescence; ≥ and ≤ were set here for values at or beyond the usual limits of such assays
HLA-A*24:02 = test: as above; settings: source organism: Zaire ebolavirus
HLA-A*01:01 [13] = test: IEDB peptide-MHC binding, purified MHC/competitive/fluorescence; filed as Kd, often an IC50 or EC50 that approximates it; ≥ and ≤ were set here for values at or beyond the usual limits of such assays; settings: source organism: Influenza A virus (A/equine/California/8560/2002(H3N8))
HLA-A*30:01 = test: IEDB peptide-MHC binding, purified MHC/competitive/radioactivity; filed as Kd, often an IC50 or EC50 that approximates it; ≥ and ≤ were set here for values at or beyond the usual limits of such assays; settings: source organism: Vaccinia virus WR
HLA-B*07:02 [14] = test: as above; settings: source organism: Vaccinia virus WR
HLA-B*51:01 [15] = test: as above; settings: source organism: Vaccinia virus WR
HLA-B*35:01 = test: as above; settings: source organism: Vaccinia virus WR
HLA-B*51:01 [16] = test: IEDB peptide-MHC binding, purified MHC/competitive/fluorescence; filed as Kd, often an IC50 or EC50 that approximates it; ≥ and ≤ were set here for values at or beyond the usual limits of such assays; settings: source organism: Mycobacterium tuberculosis C
HLA-B*58:01 = test: IEDB peptide-MHC binding, purified MHC/direct/fluorescence; filed as Kd, often an IC50 or EC50 that approximates it; ≥ and ≤ were set here for values at or beyond the usual limits of such assays; settings: source organism: Mycobacterium tuberculosis C
HLA-B*15:01 = test: as above; settings: source organism: Mycobacterium tuberculosis C
HLA-A*03:01 [17] = test: as above; settings: source organism: Mycobacterium tuberculosis C
HLA-B*40:01 [18] = test: as above; settings: source organism: Mycobacterium tuberculosis C
HLA-B*07:02 [19] = test: as above; settings: source organism: Mycobacterium tuberculosis C
HLA-A*11:01 [20] = test: as above; settings: source organism: Mycobacterium tuberculosis C
HLA-B*57:01 = test: as above; settings: source organism: Mycobacterium tuberculosis C
HLA-A*01:01 [21] = test: as above; settings: source organism: Mycobacterium tuberculosis C
HLA-B*08:01 [22] = test: as above; settings: source organism: Mycobacterium tuberculosis C
HLA-A*31:01 [23] = test: as above; settings: source organism: Mycobacterium tuberculosis C
HLA-B*44:02 [24] = test: as above; settings: source organism: Mycobacterium tuberculosis C
HLA-B*46:01 = test: as above; settings: source organism: Mycobacterium tuberculosis C
HLA-B*18:01 = test: as above; settings: source organism: Mycobacterium tuberculosis C
[25] = source organism: Vaccinia virus Copenhagen
[26] = source organism: Bacillus anthracis str. A0488
[27] = source organism: Hepatitis C virus (isolate 1)
[28] = source organism: Zaire ebolavirus
[29] = source organism: Vaccinia virus
[30] = source organism: Sudan ebolavirus
[31] = source organism: Vaccinia virus WR
[32] = source organism: Burkholderia vietnamiensis G4

**Q.** How did the pIC50 (HLA-A*03:01 [1]; [25]) turn out when ANCSSISIK was run?
**A.** The pIC50 was 4.37.

**Q.** What about the pIC50 (HLA-A*11:01 [2]; [25]) of the same sequence?
**A.** Its pIC50 is 5.56.

**Q.** What does the source list for DMNLEQWSV?
**A.** pKd (HLA-A*02:01 [3]; [26]): ≤ 4.70; pKd (HLA-A*02:19; [26]): 7.93

**Q.** EQGKQHAWL was tested. Which pKd (HLA-B*48:01; source organism: Burkholderia mallei ATCC 23344) did it give?
**A.** Its pKd is ≤ 4.70.

**Q.** With HIPGDTLFK as the sequence, how does the pIC50 (HLA-A*03:01 [1]; source organism: Variola virus) read?
**A.** Its pIC50 is 5.18.

**Q.** And the pIC50 (HLA-A*11:01 [2]; source organism: Variola virus)?
**A.** Its pIC50 is 6.13.

**Q.** What does the source list for HPNIEEVAL?
**A.** pKd (HLA-A*02:06; [27]): ≤ 4.17; pKd (HLA-A*03:01 [4]; [27]): ≤ 4.11; pKd (HLA-B*40:01 [5]): ≤ 4.12; pKd (HLA-A*33:01; [27]): ≤ 4.11; pKd (HLA-B*44:03): ≤ 4.32; pKd (HLA-B*40:02): ≤ 4.11; pKd (HLA-A*11:01 [6]; [27]): ≤ 4.11; pKd (HLA-A*02:02; [27]): 5.40; pKd (HLA-A*02:01 [7]; [27]): ≤ 4.15; pKd (HLA-A*68:01; [27]): ≤ 4.24; pKd (HLA-B*54:01; [27]): 5.34; pKd (HLA-A*01:01 [8]): 4.80; pKd (HLA-A*02:03; [27]): 4.76; pKd (HLA-B*53:01; [27]): 6.79; pKd (HLA-B*08:01 [9]): ≤ 4.44; pKd (HLA-A*31:01 [10]; [27]): ≤ 4.11; pKd (HLA-B*44:02 [11]): ≤ 4.11; pKd (HLA-A*68:02; [27]): ≤ 4.16

**Q.** What does the source list for KILMNFHQK?
**A.** pIC50 (HLA-A*03:01 [1]; [28]): 5.48; pIC50 (HLA-A*11:01 [2]; [28]): 6.36; pIC50 (HLA-A*02:01 [12]; [28]): ≤ 4.02; pIC50 (HLA-A*24:02): 4.30

**Q.** With LEYKTLCDM as the sequence, how does the pIC50 (HLA-A*03:01 [1]; [29]) read?
**A.** The pIC50 was ≤ 3.54.

**Q.** And the pIC50 (HLA-A*11:01 [2]; [29])?
**A.** The pIC50 was 4.35.

**Q.** What does the source list for LGLRKRSRR?
**A.** pIC50 (HLA-A*03:01 [1]; [30]): 5.17; pIC50 (HLA-A*11:01 [2]; [30]): 4.18

**Q.** LRTFSILNR was tested. Which pIC50 (HLA-A*03:01 [1]; [28]) did it give?
**A.** The pIC50 was ≤ 3.96.

**Q.** What about the pIC50 (HLA-A*11:01 [2]; [28]) of the same sequence?
**A.** Its pIC50 is 4.48.

**Q.** What about the pIC50 (HLA-A*02:01 [12]; [28]) of the same sequence?
**A.** The pIC50 was ≤ 3.61.

**Q.** LSVETITEK was tested. Which pIC50 (HLA-A*03:01 [1]; [25]) did it give?
**A.** Its pIC50 is ≤ 4.00.

**Q.** What about the pIC50 (HLA-A*11:01 [2]; [25]) of the same sequence?
**A.** The pIC50 was 5.18.

**Q.** What about the pIC50 (HLA-A*02:01 [12]; [25]) of the same sequence?
**A.** The pIC50 was ≤ 3.87.

**Q.** And the pKd (HLA-A*33:01; [31])?
**A.** Its pKd is 5.82.

**Q.** What about the pKd (HLA-A*68:01; [31]) of the same sequence?
**A.** The pKd was 6.58.

**Q.** What about the pKd (HLA-A*31:01 [10]; [31]) of the same sequence?
**A.** The pKd was 5.53.

**Q.** How did the pKd (HLA-A*01:01 [13]) turn out when MTIASVPTSRY was run?
**A.** Its pKd is 5.69.

**Q.** MTIREFPRK was tested. Which pKd (HLA-A*02:06; [31]) did it give?
**A.** Its pKd is ≤ 4.18.

**Q.** And the pKd (HLA-A*30:01)?
**A.** Its pKd is 8.80.

**Q.** What about the pKd (HLA-A*03:01 [4]; [31]) of the same sequence?
**A.** The pKd was 8.20.

**Q.** What about the pKd (HLA-B*07:02 [14]) of the same sequence?
**A.** Its pKd is ≤ 4.11.

**Q.** And the pKd (HLA-A*33:01; [31])?
**A.** Its pKd is 5.86.

**Q.** And the pKd (HLA-A*11:01 [6]; [31])?
**A.** The pKd was 8.41.

**Q.** And the pKd (HLA-A*02:02; [31])?
**A.** Its pKd is ≤ 4.11.

**Q.** What about the pKd (HLA-A*02:01 [7]; [31]) of the same sequence?
**A.** Its pKd is ≤ 4.11.

**Q.** What about the pKd (HLA-A*68:01; [31]) of the same sequence?
**A.** Its pKd is 8.21.

**Q.** And the pKd (HLA-B*54:01; [31])?
**A.** The pKd was ≤ 4.11.

**Q.** What about the pKd (HLA-A*02:03; [31]) of the same sequence?
**A.** The pKd was ≤ 4.11.

**Q.** And the pKd (HLA-B*53:01; [31])?
**A.** Its pKd is ≤ 4.11.

**Q.** And the pKd (HLA-A*31:01 [10]; [31])?
**A.** The pKd was 7.00.

**Q.** And the pKd (HLA-A*68:02; [31])?
**A.** Its pKd is 5.48.

**Q.** And the pKd (HLA-B*51:01 [15])?
**A.** Its pKd is ≤ 4.11.

**Q.** What about the pKd (HLA-B*35:01) of the same sequence?
**A.** The pKd was ≤ 4.11.

**Q.** How did the pIC50 (HLA-A*03:01 [1]; [28]) turn out when NRSTKGGQQ was run?
**A.** The pIC50 was ≤ 3.54.

**Q.** What about the pIC50 (HLA-A*11:01 [2]; [28]) of the same sequence?
**A.** Its pIC50 is ≤ 3.85.

**Q.** With QIIHDFVDK as the sequence, how does the pIC50 (HLA-A*03:01 [1]; [28]) read?
**A.** Its pIC50 is ≤ 4.01.

**Q.** And the pIC50 (HLA-A*11:01 [2]; [28])?
**A.** Its pIC50 is 5.20.

**Q.** What about the pIC50 (HLA-A*02:01 [12]; [28]) of the same sequence?
**A.** Its pIC50 is ≤ 3.58.

**Q.** What does the source list for TNAMVTLRK?
**A.** pIC50 (HLA-A*03:01 [1]; [28]): 5.19; pIC50 (HLA-A*11:01 [2]; [28]): 6.51; pIC50 (HLA-A*02:01 [12]; [28]): ≤ 2.96; pIC50 (HLA-A*24:02): ≤ 3.73

**Q.** What does the source list for TPKIRFWHV?
**A.** pKd (HLA-B*51:01 [16]): ≤ 4.70; pKd (HLA-B*58:01): ≤ 4.70; pKd (HLA-B*15:01): ≤ 4.70; pKd (HLA-A*03:01 [17]): ≤ 4.70; pKd (HLA-B*40:01 [18]): ≤ 4.70; pKd (HLA-B*07:02 [19]): ≤ 4.70; pKd (HLA-A*11:01 [20]): ≤ 4.70; pKd (HLA-B*57:01): ≤ 4.70; pKd (HLA-A*01:01 [21]): ≤ 4.70; pKd (HLA-B*08:01 [22]): 7.04; pKd (HLA-A*31:01 [23]): ≤ 4.70; pKd (HLA-B*44:02 [24]): ≤ 4.70; pKd (HLA-B*46:01): ≤ 4.70; pKd (HLA-B*48:01; source organism: Mycobacterium tuberculosis C): ≤ 4.70; pKd (HLA-B*18:01): ≤ 4.70

**Q.** With VLYYHMMKD as the sequence, how does the pIC50 (HLA-A*03:01 [1]; [28]) read?
**A.** The pIC50 was 4.58.

**Q.** And the pIC50 (HLA-A*11:01 [2]; [28])?
**A.** The pIC50 was 4.90.

**Q.** What about the pIC50 (HLA-A*02:01 [12]; [28]) of the same sequence?
**A.** The pIC50 was 4.32.

**Q.** What does the source list for WFMTWQPNI?
**A.** pKd (HLA-A*02:01 [3]; [32]): 6.27; pKd (HLA-A*02:19; [32]): 7.28
